The values that follow come from patent publication US20250257137A1 (IMBIOLOGICS, published 2025).

The term EC50 (read off the curve) denotes the concentration that produces a half-maximal response. As a reminder, the Kd is the equilibrium constant for the complex coming apart. As a reminder, the koff is the first-order rate constant of dissociation. A high value points to a short-lived complex. The kon is the second-order rate constant of association. High values mean fast association, low ones slow association.

The target of assay [1] is T1, HLA-G protein antigen (human, UniProt P17693 25-308).
T1 construct: also called HLA-G antigen
Put plainly: ELISA according to Example 1-4-1. A general note: An ELISA detects its analyte on a solid surface through an enzyme-linked reagent.

Assay [2] deals with T1, HLA-G protein antigen. Nature of the assay: ELISA on HLA-G antigen, according to Example 1-4-1.
Assay [3] concerns the target T1, HLA-G protein antigen. Nature of the assay: SPR according to Example 1-4-1; HLA-G antigen.
Assay [4] addresses T2, Fcα/µ receptor (R&D systems) (UniProt Q8WWV6 17-450).
T2 sequence: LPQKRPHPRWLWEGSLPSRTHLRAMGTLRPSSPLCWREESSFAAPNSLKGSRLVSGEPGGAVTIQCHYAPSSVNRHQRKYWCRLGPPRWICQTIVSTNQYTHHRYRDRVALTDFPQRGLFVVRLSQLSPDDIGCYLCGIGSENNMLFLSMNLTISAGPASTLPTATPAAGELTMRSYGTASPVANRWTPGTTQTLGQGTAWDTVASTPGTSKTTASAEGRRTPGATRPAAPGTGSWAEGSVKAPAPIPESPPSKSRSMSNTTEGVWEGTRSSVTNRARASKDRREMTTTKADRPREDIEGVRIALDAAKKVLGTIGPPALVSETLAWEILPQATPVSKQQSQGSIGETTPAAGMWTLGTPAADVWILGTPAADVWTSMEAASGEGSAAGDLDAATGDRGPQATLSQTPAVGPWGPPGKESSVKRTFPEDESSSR
Nature of the assay: ELISA, Fcα/µ receptor coated at 100 ng/well; detection HRP anti-IgM (F5µ).

Assay [5] has as its target T3, pIgR (polymeric Ig receptor; R&D systems) (UniProt P01833 19-638).
T3 construct: also called pIg receptor
Nature of the assay: ELISA, pIgR coated at 100 ng/well; detection HRP anti-IgM (F5µ).

Assay [6] addresses T4, HLA-G naturally expressed on JEG-3 cells (human, UniProt P17693 25-338).
T4 construct: whole, on cells; also called HLA-G expressing cells; HLA-G receptor in the cell
Nature of the assay: flow cytometry on JEG-3 cells that naturally express HLA-G; detection anti-IgM-PE or anti-IgG Fc-FITC; MFI. On the technique in general: Flow cytometry measures light scatter and fluorescence of single cells or particles in a stream.

Assay [7] deals with T5, HLA-G-6× his tag (IMBiologics) (human, UniProt P17693 25-308).
T5 construct: also called recombinant HLA-G protein
Put plainly: blocking ELISA: ILT-2 antigen coated at 150 ng/well, HLA-G-6× his added with the dilution, detection HRP anti-6× his; blocked ligand ILT-2.

Assay [8] has as its target T5, HLA-G-6× his tag (IMBiologics). The assay is described as above. This is another data set of the same source.

Where two headings read alike, the source gives them in different places.

T3 sequence (P01833 19-638 limits assumed): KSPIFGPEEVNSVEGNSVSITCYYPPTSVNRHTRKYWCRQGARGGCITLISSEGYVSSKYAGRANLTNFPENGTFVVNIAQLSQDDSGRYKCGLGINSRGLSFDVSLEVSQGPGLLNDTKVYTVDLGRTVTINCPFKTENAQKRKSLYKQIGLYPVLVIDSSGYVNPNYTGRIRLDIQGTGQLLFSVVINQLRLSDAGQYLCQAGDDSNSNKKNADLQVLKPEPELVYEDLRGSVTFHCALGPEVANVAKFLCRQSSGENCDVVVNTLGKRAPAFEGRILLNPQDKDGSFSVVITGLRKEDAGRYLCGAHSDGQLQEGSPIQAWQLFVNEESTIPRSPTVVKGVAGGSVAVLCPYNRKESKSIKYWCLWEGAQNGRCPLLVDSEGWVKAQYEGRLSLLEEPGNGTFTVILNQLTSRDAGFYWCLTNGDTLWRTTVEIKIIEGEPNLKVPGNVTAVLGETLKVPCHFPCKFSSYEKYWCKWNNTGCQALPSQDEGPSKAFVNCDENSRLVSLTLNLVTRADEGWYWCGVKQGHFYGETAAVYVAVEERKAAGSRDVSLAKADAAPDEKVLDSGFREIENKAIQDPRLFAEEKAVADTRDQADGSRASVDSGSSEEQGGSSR

B1: [(A2014)2-(IgD hinge region)2-(IgM Fc region)]6-(J chain)0 (Fc fusion)
heavy: QVQLQQSGPGLLKPSQTLSLTCAISGDSVSSNRAAWNWIRQSPSRGLEWLGRTYYRSKWYNDYAVSVQGRITLIPDTSKNQFSLRLNSVTPEDTAVYYCASVRAVAPFDYWGQGVLVTVSSASTKGPSVFPLAPSSKSTSGGTAALGCLVKDYFPEPVTVSWNSGALTSGVHTFPAVLQSSGLYSLSSVVTVPSSSLGTQTYICNVNHKPSNTKVDKKVEPKSCRNTGRGGEEKKKEKEKEEQEERETKTPECPSHTQPLGVIAELPPKVSVFVPPRDGFFGNPRKSKLICQATGFSPRQIQVSWLREGKQVGSGVTTDQVQAEAKESGPTTYKVTSTLTIKESDWLSQSMFTCRVDHRGLTFQQNASSMCVPDQDTAIRVFAIPPSFASIFLTKSTKLTCLVTDLTTYDSVTISWTRQNGEAVKTHTNISESHPNATFSAVGEASICEDDWNSGERFTCTVTHTDLPSPLKQTISRPKGVALHRPDVYLLPPAREQLNLRESATITCLVTGFSPADVFVQWMQRGQPLSPEKYVTSAPMPEPQAPGRYFAHSILTVSEEEWNTGETYTCVVAHEALPNRVTERTVDKSTGKPTLYNVSLVMSDTAGTCY
light: not shown
Regarding B1, in the assay with HLA-G protein antigen [1], the “fold improvement of EC50 against the (A2014)-(IgGFc) control protein” value is at least 1000 fold. For the same molecule, in the assay with HLA-G protein antigen [2], the “EC50 (read off the curve)” value was about 0.04 nM. Moreover, in the assay with HLA-G protein antigen [3], the Kd was 0.00232 nM, the koff came to 3.51e-05 s⁻¹ and the kon was 1.48e+07 M⁻¹ s⁻¹.

B2: [(CMVpHLA)2-(linker)2-(IgG Fc region)-(IgM Fc region)]5-(J chain D105K) (Fc fusion)
chain (part 1 of 2): […]
chain (part 2 of 2): QDTAIRVFAIPPSFASIFLTKSTKLTCLVTDLTTYDSVTISWTRQNGEAVKTHTNISESHPNATFSAVGEASICEDDWNSGERFTCTVTHTDLPSPLKQTISRPKGVALHRPDVYLLPPAREQLNLRESATITCLVTGFSPADVFVQWMQRGQPLSPEKYVTSAPMPEPQAPGRYFAHSILTVSEEEWNTGETYTCVVAHEALPNRVTERTVDKSTGKPTLYNVSLVMSDTAGTCY
chain: […]
notes: not shown: IgG Fc
Consider B2, for which the binding result in assay [4] is given as “no binding”.

B3: [(CMVpHLA)2-(linker)2-(IgG Fc region)-(IgM Fc region)]5-(J chain R106Q) (Fc fusion)
chain (part 1 of 2): […]
chain (part 2 of 2): B2 chain (part 2 of 2)
chain: […]
notes: not shown: IgG Fc
Regarding B3, in assay [4], the binding result is “no binding”.

B4: [(CMVpHLA)2-(linker)2-(IgG Fc region)-(IgM Fc region)]5-(J chain R106V) (Fc fusion)
chain (part 1 of 2): […]
chain (part 2 of 2): B2 chain (part 2 of 2)
chain: […]
notes: not shown: IgG Fc
On to B4, for which, in assay [5], the binding result was “no binding”.

B5: [(CMVpHLA)2-(linker)2-(IgG Fc region)-(IgM Fc region)]5-(J chain N107F) (Fc fusion)
chain (part 1 of 2): […]
chain (part 2 of 2): B2 chain (part 2 of 2)
chain: […]
notes: not shown: IgG Fc
For B5, the binding result in assay [4] is “no binding”.

B6: [(CMVpHLA)2-(linker)2-(IgG Fc region)-(IgM Fc region)]5-(J chain R106A) (Fc fusion)
chain (part 1 of 2): […]
chain (part 2 of 2): B2 chain (part 2 of 2)
chain: […]
notes: not shown: IgG Fc
For B6, the binding result in assay [4] is “no binding”.

B7: (A2014)2-(IgG Fc region) (antibody, V domains shown)
VH: QVQLQQSGPGLLKPSQTLSLTCAISGDSVSSNRAAWNWIRQSPSRGLEWLGRTYYRSKWYNDYAVSVQGRITLIPDTSKNQFSLRLNSVTPEDTAVYYCASVRAVAPFDYWGQGVLVTVSS
VL: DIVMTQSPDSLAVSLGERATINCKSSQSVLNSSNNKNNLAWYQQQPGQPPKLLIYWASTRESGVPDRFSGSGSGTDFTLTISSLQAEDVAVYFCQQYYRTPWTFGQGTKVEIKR
notes: also called (A2014)-(IgG Fc); (A2014)-(IgGFc) control protein
For the molecule B7, the “EC50 (read off the curve)” value in assay [6] is about 0.7 nM. In addition, the “IC50 (read off the curve)” value in assay [7] is about 8 nM. The “IC50 (read off the curve)” value in assay [8] was about 30 nM. In the assay with HLA-G protein antigen [3], binding was put at a Kd of 0.0259 nM, the koff turned out to be 0.000305 s⁻¹ and the kon was 1.18e+07 M⁻¹ s⁻¹.
